Results from patent US20260250418A1.

Experiments:
[1] = target: human MET on NIH3T3-hMET cells (human) (UniProt P08581); test: flow cytometry, transfected NIH3T3 cells
[2] = target: monkey MET on NIH3T3-fasMET cells (monkey) (UniProt A0M8R7); test: flow cytometry, transfected NIH3T3 cells
[3] = target: dog HER3 on CHO-dHER3 cells (dog); test: flow cytometry, transfected CHO cells
[4] = target: human HER3 on CHO-hHER3 cells (human) (UniProt P21860); test: flow cytometry, transfected CHO cells
[5] = target: monkey (Macaca fascicularis) HER3 on CHO-fasHER3 cells (monkey (Macaca fascicularis)); test: flow cytometry, transfected CHO cells
[6] = target: mouse HER3 on CHO-mHER3 cells (mouse) (UniProt Q61526); test: flow cytometry, transfected CHO cells
Chain of mouse HER3 on CHO-mHER3 cells (mouse) (Q61526 20-641): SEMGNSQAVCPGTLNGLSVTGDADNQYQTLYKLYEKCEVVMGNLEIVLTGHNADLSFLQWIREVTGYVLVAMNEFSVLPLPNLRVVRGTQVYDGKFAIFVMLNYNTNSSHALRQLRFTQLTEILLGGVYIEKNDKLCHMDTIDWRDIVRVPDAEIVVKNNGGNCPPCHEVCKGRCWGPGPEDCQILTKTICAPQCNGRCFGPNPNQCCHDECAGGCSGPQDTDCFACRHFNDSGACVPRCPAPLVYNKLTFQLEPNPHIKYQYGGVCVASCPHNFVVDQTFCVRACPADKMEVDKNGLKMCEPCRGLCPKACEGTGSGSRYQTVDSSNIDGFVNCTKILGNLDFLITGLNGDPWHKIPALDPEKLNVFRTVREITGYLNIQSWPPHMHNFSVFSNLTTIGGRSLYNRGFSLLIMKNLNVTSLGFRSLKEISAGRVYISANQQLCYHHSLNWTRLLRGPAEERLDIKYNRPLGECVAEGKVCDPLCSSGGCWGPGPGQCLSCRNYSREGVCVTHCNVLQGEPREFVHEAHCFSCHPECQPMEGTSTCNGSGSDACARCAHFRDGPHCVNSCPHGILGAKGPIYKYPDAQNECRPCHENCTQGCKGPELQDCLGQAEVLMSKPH

Chain of monkey MET on NIH3T3-fasMET cells (monkey) (A0M8R7 25-1381 S170N/I621T limits assumed): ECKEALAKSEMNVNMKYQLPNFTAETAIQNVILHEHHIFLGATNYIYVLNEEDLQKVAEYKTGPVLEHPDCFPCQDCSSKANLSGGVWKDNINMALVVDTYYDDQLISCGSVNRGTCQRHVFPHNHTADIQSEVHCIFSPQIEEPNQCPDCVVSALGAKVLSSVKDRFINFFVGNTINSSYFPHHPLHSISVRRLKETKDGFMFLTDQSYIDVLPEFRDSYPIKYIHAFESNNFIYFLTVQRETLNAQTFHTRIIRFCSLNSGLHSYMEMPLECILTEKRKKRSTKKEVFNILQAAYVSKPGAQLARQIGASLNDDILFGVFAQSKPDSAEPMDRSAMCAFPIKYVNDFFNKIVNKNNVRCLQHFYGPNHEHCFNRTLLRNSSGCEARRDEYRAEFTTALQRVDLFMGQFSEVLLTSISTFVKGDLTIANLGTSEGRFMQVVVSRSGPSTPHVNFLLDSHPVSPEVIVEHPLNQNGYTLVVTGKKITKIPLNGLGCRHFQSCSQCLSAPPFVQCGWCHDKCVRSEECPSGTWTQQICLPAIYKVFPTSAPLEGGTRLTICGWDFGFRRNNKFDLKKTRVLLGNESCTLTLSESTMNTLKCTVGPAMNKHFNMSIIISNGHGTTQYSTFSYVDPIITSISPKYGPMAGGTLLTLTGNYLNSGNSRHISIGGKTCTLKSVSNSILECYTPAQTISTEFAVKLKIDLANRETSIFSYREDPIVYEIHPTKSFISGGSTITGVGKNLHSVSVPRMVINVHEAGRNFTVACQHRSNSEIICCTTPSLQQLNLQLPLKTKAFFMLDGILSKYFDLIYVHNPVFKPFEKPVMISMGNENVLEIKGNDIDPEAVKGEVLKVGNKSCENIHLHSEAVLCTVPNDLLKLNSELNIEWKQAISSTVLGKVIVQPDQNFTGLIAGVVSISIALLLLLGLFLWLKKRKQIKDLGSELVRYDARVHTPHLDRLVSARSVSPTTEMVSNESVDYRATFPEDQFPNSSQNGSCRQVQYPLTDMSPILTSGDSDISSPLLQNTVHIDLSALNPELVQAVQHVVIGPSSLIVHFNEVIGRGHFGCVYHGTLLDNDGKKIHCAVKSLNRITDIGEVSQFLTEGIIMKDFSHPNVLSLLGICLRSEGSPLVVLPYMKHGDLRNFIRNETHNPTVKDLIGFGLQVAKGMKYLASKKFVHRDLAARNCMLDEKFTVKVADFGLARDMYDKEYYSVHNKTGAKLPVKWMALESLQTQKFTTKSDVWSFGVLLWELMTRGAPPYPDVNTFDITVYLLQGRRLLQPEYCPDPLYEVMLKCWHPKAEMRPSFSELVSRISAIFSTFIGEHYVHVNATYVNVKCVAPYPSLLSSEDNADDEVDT
Chain of human MET on NIH3T3-hMET cells (human) (P08581 25-1390 limits assumed): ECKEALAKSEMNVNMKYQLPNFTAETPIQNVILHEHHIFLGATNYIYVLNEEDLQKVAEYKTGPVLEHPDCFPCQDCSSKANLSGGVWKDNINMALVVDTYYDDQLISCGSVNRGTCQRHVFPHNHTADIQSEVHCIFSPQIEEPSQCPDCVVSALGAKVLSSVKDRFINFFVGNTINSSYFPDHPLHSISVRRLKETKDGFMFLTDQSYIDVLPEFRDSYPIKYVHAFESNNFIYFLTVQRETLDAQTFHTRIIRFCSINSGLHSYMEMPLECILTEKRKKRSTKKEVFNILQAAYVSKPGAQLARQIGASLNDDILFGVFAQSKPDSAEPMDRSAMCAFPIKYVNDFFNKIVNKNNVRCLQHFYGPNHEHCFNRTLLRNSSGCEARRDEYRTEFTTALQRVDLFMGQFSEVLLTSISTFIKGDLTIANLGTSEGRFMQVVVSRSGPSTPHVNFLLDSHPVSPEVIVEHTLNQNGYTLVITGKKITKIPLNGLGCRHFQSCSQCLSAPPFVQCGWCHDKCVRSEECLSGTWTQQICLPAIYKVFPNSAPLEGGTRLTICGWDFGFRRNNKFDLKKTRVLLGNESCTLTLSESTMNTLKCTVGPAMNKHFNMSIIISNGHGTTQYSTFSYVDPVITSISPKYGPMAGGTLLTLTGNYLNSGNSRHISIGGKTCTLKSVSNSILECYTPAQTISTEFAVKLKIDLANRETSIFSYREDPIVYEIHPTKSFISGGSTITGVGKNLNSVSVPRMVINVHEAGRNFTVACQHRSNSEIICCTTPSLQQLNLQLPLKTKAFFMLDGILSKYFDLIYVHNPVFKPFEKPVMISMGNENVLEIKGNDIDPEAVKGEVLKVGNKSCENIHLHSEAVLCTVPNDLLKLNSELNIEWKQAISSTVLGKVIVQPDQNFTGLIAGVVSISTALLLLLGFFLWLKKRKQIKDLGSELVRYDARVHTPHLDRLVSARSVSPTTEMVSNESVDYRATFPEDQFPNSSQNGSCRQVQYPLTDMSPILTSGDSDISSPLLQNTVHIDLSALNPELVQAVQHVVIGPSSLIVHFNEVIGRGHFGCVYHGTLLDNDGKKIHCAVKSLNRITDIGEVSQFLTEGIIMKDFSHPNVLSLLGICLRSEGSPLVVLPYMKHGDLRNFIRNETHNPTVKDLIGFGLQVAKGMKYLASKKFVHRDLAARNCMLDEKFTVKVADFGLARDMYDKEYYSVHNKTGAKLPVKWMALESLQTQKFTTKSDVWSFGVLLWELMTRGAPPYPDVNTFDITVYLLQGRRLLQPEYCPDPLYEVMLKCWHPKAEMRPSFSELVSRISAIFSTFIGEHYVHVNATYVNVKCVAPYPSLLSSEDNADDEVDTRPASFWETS

NC
Positive Cells [1]: 3.9%
Positive Cells [2]: 0.5%
Percentage of Positive Cells [3]: 1%
Percentage of Positive Cells [4]: 0.4%
Positive Cells [4]: 2.1%
Percentage of Positive Cells [5]: 0.2%
Positive Cells [5]: 3.2%
Percentage of Positive Cells [6]: 0.2%

NC + secondary antibody
Positive Cells [1]: 2.4%
Positive Cells [2]: 0.6%
Percentage of Positive Cells [3]: 1.6%
Percentage of Positive Cells [4]: 1.7%
Positive Cells [4]: 2.8%
Percentage of Positive Cells [5]: 0.9%
Positive Cells [5]: 2.7%
Percentage of Positive Cells [6]: 0.5%
